The values below come from paper PMC4036204, “The DDN Catalytic Motif Is Required for Metnase Functions in Non-homologous End Joining (NHEJ) Repair and Replication Restart*”.

Assay in all cases: fluorescence polarization; FP: 50 mM HEPES pH 7.0, 150 mM NaCl, 10 nM probe, temperature not stated; EMSA: 50 mM HEPES-KOH pH 7.8, 50 mM NaCl, 0.2 ug poly(dI:dC), 0.2 ug/ul BSA, room temperature 15 min
Data set [1] addresses T1, Metnase transposase domain WT (UniProt Q53H47 342-684).
T1 sequence: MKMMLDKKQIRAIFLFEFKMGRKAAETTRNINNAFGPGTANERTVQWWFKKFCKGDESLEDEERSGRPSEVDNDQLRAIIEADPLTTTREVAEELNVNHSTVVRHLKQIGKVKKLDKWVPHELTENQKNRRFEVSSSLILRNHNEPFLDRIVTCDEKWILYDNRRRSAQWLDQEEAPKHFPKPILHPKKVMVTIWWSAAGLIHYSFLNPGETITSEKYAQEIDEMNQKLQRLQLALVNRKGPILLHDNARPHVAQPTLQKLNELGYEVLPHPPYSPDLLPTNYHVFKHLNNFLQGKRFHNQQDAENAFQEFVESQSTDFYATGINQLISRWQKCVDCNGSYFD
To be noted: protein: recombinant, tags: His6-SUMO cleaved by Ulp1.

Data set [2] concerns the target T2, Metnase catalytic domain WT (UniProt Q53H47 446-684).
T2 sequence: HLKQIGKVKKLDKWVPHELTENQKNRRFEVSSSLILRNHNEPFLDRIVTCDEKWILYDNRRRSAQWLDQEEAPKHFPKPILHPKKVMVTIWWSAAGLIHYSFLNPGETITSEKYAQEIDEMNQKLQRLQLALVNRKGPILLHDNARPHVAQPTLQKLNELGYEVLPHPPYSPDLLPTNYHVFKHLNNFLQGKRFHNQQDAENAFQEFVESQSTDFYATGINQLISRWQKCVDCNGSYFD
To be noted: protein: recombinant, tags: N-terminal His tag removed by thrombin.

Data set [3] deals with T3, Metnase DNA-binding domain WT (UniProt Q53H47 342-453).
T3 sequence: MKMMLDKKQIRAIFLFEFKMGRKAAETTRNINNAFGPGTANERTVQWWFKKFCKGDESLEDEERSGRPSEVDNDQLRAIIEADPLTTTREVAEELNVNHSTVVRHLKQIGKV
To be noted: protein: recombinant, tags: His6-SUMO cleaved by Ulp1.

In data set [4] the target is T4, Metnase transposase domain N610E (UniProt Q53H47 342-684, N623E).
T4 sequence: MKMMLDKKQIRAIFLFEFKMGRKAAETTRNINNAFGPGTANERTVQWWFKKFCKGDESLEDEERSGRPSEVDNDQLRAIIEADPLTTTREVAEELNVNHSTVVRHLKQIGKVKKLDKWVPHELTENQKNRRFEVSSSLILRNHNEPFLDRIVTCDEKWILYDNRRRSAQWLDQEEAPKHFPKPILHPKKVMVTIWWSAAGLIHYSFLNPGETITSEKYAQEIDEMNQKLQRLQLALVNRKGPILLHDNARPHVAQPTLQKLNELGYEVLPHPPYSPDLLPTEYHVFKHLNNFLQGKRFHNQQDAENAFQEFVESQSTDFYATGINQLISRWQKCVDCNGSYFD
To be noted: protein: recombinant; tags: His6-SUMO cleaved by Ulp1; label: 5' rhodamine; single strand.

The target of another data set is T5, Mos1 transposase WT (UniProt Q7JQ07 1-345).
T5 sequence: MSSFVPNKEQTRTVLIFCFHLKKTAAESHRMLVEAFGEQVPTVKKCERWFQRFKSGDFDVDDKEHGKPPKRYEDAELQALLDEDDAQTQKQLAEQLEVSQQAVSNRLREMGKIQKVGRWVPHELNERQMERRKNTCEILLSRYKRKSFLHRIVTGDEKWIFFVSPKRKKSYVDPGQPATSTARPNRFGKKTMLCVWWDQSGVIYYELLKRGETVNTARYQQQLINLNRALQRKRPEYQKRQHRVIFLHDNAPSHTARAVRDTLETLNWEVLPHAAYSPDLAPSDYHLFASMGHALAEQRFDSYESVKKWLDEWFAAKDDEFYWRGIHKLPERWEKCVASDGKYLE
To be noted: protein: recombinant; tags: His6-SUMO cleaved by Ulp1; label: 5' rhodamine; single strand.

In data set [5] the target is T6, Metnase transposase domain N610D (UniProt Q53H47 342-684, N623D).
T6 sequence: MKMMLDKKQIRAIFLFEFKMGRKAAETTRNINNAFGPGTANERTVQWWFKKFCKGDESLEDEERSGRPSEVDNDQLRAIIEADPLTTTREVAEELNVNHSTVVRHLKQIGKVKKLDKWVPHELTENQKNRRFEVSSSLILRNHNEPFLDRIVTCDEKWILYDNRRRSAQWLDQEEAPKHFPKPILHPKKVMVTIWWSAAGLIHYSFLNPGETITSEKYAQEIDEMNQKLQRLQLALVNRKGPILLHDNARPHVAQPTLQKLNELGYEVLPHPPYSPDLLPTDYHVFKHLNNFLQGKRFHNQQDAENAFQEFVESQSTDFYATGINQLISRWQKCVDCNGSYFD
To be noted: protein: recombinant; tags: His6-SUMO cleaved by Ulp1; label: 5' rhodamine; single strand.

The target of the next data set is T7, Mos1 transposase D284N (UniProt Q7JQ07 1-345, D284N).
T7 sequence: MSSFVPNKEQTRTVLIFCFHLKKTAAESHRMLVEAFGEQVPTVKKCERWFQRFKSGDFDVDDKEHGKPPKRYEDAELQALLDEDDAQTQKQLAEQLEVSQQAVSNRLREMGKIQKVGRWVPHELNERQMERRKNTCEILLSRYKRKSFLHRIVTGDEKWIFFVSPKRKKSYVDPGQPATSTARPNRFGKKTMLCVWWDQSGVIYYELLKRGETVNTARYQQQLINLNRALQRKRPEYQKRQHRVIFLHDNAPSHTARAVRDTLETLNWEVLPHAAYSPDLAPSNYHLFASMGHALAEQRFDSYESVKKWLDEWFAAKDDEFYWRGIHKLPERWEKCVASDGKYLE
To be noted: protein: recombinant; tags: His6-SUMO cleaved by Ulp1; label: 5' rhodamine; single strand.

[6] abbreviates: label: 5' rhodamine on strand 1, blunt.
[7] abbreviates: label: 5' rhodamine, single strand.

B1: 25/31-mer TIR partial duplex (dsDNA)
DNA 1: AACCGCAATTACTTTTGCACCAACC
DNA 2: TCAGTAGGTTGGTGCAAAAGTAATTGCGGTT
modifications: 5' C6-amino linker on strand 1
Broadly, the Kd is the concentration at which binding is half-saturated. For the molecule B1, in data set [1] (chain copies: 2, label: 5' rhodamine on strand 1, 5' overhang 6 nt on strand 2), the Kd came to 11.9 ± 2.5 nM.

B2: 28-bp blunt TIR dsDNA (dsDNA)
DNA 1: AACCGCAATTACTTTTGCACCAACCTAA
DNA 2: TTAGGTTGGTGCAAAAGTAATTGCGGTT
modifications: 5' C6-amino linker on strand 1
For the molecule B2, the Kd in data set [2] (setting [6]) was found to be 4700 ± 800 nM; in data set [1] (chain copies: 2, label: 5' rhodamine on strand 1, blunt), 7.9 ± 1.9 nM; in data set [3] (setting [6]), 3.2 ± 0.9 nM.
On to AACCGCAATTACTTTTGCACCAACC (ssDNA, 5' C6-amino linker) [25-nt TIR ssDNA], for which the Kd in data set [2] (setting [7]) stood at 295 ± 47 nM; in data set [4], 3200 ± 400 nM; in data set [1] (setting [7]) it was 277 ± 26 nM; with Mos1 transposase WT, 33 ± 9 nM; in data set [5], 3300 ± 1100 nM; with Mos1 transposase D284N, 33 ± 12 nM. Also, the binding result in data set [3] (setting [7]) is “no binding”.
